# Results reported in the RNAGym collection of RNA variant scans (doi:10.1021/acssynbio.7b00057).
# B1: Pistol ribozyme (parent)
# chain: GGGUCGUUGUUCCAUAAUCGCGUGGAUAUGGCACGCAAGUUUCUACCGGGCACCGUAAAUGUCCGACUGGAGCCGUUCGGGCGGCUAUAAACAGACCUCAGGCCCGAAGCGUGGCGGCACCUGCCGCCGGUGGUAAAAAAGAUCGGAAGAGCACACGUCU
# Variants of: B1
# Assay: aptazyme ON/OFF ratio, guanine; higher = stronger switching; co-transcriptional cleavage with and without guanine
row,Variant,aptazyme ON/OFF ratio
1,GGGUCGCUAUAUCAUAAUCGCGUGGAUAUGGCACGCAAGUUUCUACCGGGCACCGUAAAUGUCCGACUGGAGCCGUUCGGGCGGCUAUAAACAGACCUCAGGCCCGAAGCGUGGCGGCACCUGCCGCCGGUGGUAAAAAAGAUCGGAAGAGCACACGUCU [U7C G9A U11A C12U],1.19
2,GGGUCGCUAUGAUAUAAUCGCGUGGAUAUGGCACGCAAGUUUCUACCGGGCACCGUAAAUGUCCGACUGGAGCCGUUCGGGCGGCUAUAAACAGACCUCAGGCCCGAAGCGUGGCGGCACCUGCCGCCGGUGGUAAAAAAGAUCGGAAGAGCACACGUCU [U7C G9A U11G C12A C13U],1.14
3,GGGUCGCUAUGAAAUAAUCGCGUGGAUAUGGCACGCAAGUUUCUACCGGGCACCGUAAAUGUCCGACUGGAGCCGUUCGGGCGGCUAUAAACAGACCUCAGGCCCGAAGCGUGGCGGCACCUGCCGCCGGUGGUAAAAAAGAUCGGAAGAGCACACGUCU [U7C G9A U11G C12A C13A],1.22
4,GGGUCGCUAUGAGAUAAUCGCGUGGAUAUGGCACGCAAGUUUCUACCGGGCACCGUAAAUGUCCGACUGGAGCCGUUCGGGCGGCUAUAAACAGACCUCAGGCCCGAAGCGUGGCGGCACCUGCCGCCGGUGGUAAAAAAGAUCGGAAGAGCACACGUCU [U7C G9A U11G C12A C13G],1.25
5,GGGUCGCUAUCGAAUAAUCGCGUGGAUAUGGCACGCAAGUUUCUACCGGGCACCGUAAAUGUCCGACUGGAGCCGUUCGGGCGGCUAUAAACAGACCUCAGGCCCGAAGCGUGGCGGCACCUGCCGCCGGUGGUAAAAAAGAUCGGAAGAGCACACGUCU [U7C G9A U11C C12G C13A],1.29
6,GGGUCGCUAUCGUAUAAUCGCGUGGAUAUGGCACGCAAGUUUCUACCGGGCACCGUAAAUGUCCGACUGGAGCCGUUCGGGCGGCUAUAAACAGACCUCAGGCCCGAAGCGUGGCGGCACCUGCCGCCGGUGGUAAAAAAGAUCGGAAGAGCACACGUCU [U7C G9A U11C C12G C13U],1.18
7,GGGUCGCUAUCGGAUAAUCGCGUGGAUAUGGCACGCAAGUUUCUACCGGGCACCGUAAAUGUCCGACUGGAGCCGUUCGGGCGGCUAUAAACAGACCUCAGGCCCGAAGCGUGGCGGCACCUGCCGCCGGUGGUAAAAAAGAUCGGAAGAGCACACGUCU [U7C G9A U11C C12G C13G],1.17
8,GGGUCGCUAUAUGAUAAUCGCGUGGAUAUGGCACGCAAGUUUCUACCGGGCACCGUAAAUGUCCGACUGGAGCCGUUCGGGCGGCUAUAAACAGACCUCAGGCCCGAAGCGUGGCGGCACCUGCCGCCGGUGGUAAAAAAGAUCGGAAGAGCACACGUCU [U7C G9A U11A C12U C13G],1.09
9,GGGUCGCUAUAUUAUAAUCGCGUGGAUAUGGCACGCAAGUUUCUACCGGGCACCGUAAAUGUCCGACUGGAGCCGUUCGGGCGGCUAUAAACAGACCUCAGGCCCGAAGCGUGGCGGCACCUGCCGCCGGUGGUAAAAAAGAUCGGAAGAGCACACGUCU [U7C G9A U11A C12U C13U],1.3
10,GGGUCGCUAUAUAAUAAUCGCGUGGAUAUGGCACGCAAGUUUCUACCGGGCACCGUAAAUGUCCGACUGGAGCCGUUCGGGCGGCUAUAAACAGACCUCAGGCCCGAAGCGUGGCGGCACCUGCCGCCGGUGGUAAAAAAGAUCGGAAGAGCACACGUCU [U7C G9A U11A C12U C13A],1.07
11,GGGUCGCUAUCCGAUAAUCGCGUGGAUAUGGCACGCAAGUUUCUACCGGGCACCGUAAAUGUCCGACUGGAGCCGUUCGGGCGGCUAUAAACAGACCUCAGGCCCGAAGCGUGGCGGCACCUGCCGCCGGUGGUAAAAAAGAUCGGAAGAGCACACGUCU [U7C G9A U11C C13G],1.04
12,GGGUCGCUAUCCUAUAAUCGCGUGGAUAUGGCACGCAAGUUUCUACCGGGCACCGUAAAUGUCCGACUGGAGCCGUUCGGGCGGCUAUAAACAGACCUCAGGCCCGAAGCGUGGCGGCACCUGCCGCCGGUGGUAAAAAAGAUCGGAAGAGCACACGUCU [U7C G9A U11C C13U],1.06
13,GGGUCGCUAUCCAAUAAUCGCGUGGAUAUGGCACGCAAGUUUCUACCGGGCACCGUAAAUGUCCGACUGGAGCCGUUCGGGCGGCUAUAAACAGACCUCAGGCCCGAAGCGUGGCGGCACCUGCCGCCGGUGGUAAAAAAGAUCGGAAGAGCACACGUCU [U7C G9A U11C C13A],1.07
14,GGGUCGCUAUGCCAUAAUCGCGUGGAUAUGGCACGCAAGUUUCUACCGGGCACCGUAAAUGUCCGACUGGAGCCGUUCGGGCGGCUAUAAACAGACCUCAGGCCCGAAGCGUGGCGGCACCUGCCGCCGGUGGUAAAAAAGAUCGGAAGAGCACACGUCU [U7C G9A U11G],1.37
15,GGGUCGCUAUCCCAUAAUCGCGUGGAUAUGGCACGCAAGUUUCUACCGGGCACCGUAAAUGUCCGACUGGAGCCGUUCGGGCGGCUAUAAACAGACCUCAGGCCCGAAGCGUGGCGGCACCUGCCGCCGGUGGUAAAAAAGAUCGGAAGAGCACACGUCU [U7C G9A U11C],1.05
16,GGGUCGCUAUAGUAUAAUCGCGUGGAUAUGGCACGCAAGUUUCUACCGGGCACCGUAAAUGUCCGACUGGAGCCGUUCGGGCGGCUAUAAACAGACCUCAGGCCCGAAGCGUGGCGGCACCUGCCGCCGGUGGUAAAAAAGAUCGGAAGAGCACACGUCU [U7C G9A U11A C12G C13U],1.27
17,GGGUCGCUAUAGGAUAAUCGCGUGGAUAUGGCACGCAAGUUUCUACCGGGCACCGUAAAUGUCCGACUGGAGCCGUUCGGGCGGCUAUAAACAGACCUCAGGCCCGAAGCGUGGCGGCACCUGCCGCCGGUGGUAAAAAAGAUCGGAAGAGCACACGUCU [U7C G9A U11A C12G C13G],1.19
18,GGGUCGCUAUACGAUAAUCGCGUGGAUAUGGCACGCAAGUUUCUACCGGGCACCGUAAAUGUCCGACUGGAGCCGUUCGGGCGGCUAUAAACAGACCUCAGGCCCGAAGCGUGGCGGCACCUGCCGCCGGUGGUAAAAAAGAUCGGAAGAGCACACGUCU [U7C G9A U11A C13G],1.09
